{"source": "patent US20250186614A1", "about": "“COMPACT DRUG RESPONSIVE DOMAINS FOR REGULATION OF FUNCTION/ABUNDANCE AND DELIVERY OF POLYPEPTIDE PAYLOADS” (OBSIDIAN THERAPEUTICS, INC., priority 2022, published 2025)", "molecules": {"B1": {"name": "FKBP-131: FKBP13 DRD Q72R, Q84E, A117W, T126C; SEQ ID NO: 81 (protein)", "chain": "HCPIKSRKGDVLHMHYTGKLEDGTEFDSSLPRNQPFVFSLGTGEVIKGWDQGLLGMCEGEKRKLVIPSELGYGERGWPPKIPGGACLVFEVELLKIER", "modifications": "Description of sequence: FKBP13-AcGFP-mCherry Fusion; Construct Name: FKBP-131; FKBP13 DRD in Construct : FKBP13 (mutated to match FKBP12 active site Q72R Q84E A117W) (DRD T126C)"}, "B2": {"name": "FKBP-139: FKBP13 DRD Q72R, Q84E, A117W, E130R; SEQ ID NO: 89 (protein)", "chain": "HCPIKSRKGDVLHMHYTGKLEDGTEFDSSLPRNQPFVFSLGTGEVIKGWDQGLLGMCEGEKRKLVIPSELGYGERGWPPKIPGGATLVFRVELLKIER", "modifications": "Description of sequence: FKBP13-AcGFP-mCherry Fusion; Construct Name: FKBP-139; FKBP13 DRD in Construct : FKBP13 (mutated to match FKBP12 active site Q72R Q84E A117W) (DRD E130R)"}, "B3": {"name": "FKBP-140: FKBP13 DRD Q72R, Q84E, A117W, K135Y; SEQ ID NO: 90 (protein)", "chain": "HCPIKSRKGDVLHMHYTGKLEDGTEFDSSLPRNQPFVFSLGTGEVIKGWDQGLLGMCEGEKRKLVIPSELGYGERGWPPKIPGGATLVFEVELLYIER", "modifications": "Description of sequence: FKBP13-AcGFP-mCherry Fusion; Construct Name: FKBP-140; FKBP13 DRD in Construct : FKBP13 (mutated to match FKBP12 active site Q72R Q84E A117W) (DRD K135Y)"}, "B4": {"name": "FKBP-141: FKBP13 DRD Q72R, Q84E, A117R, L52R; SEQ ID NO: 91 (protein)", "chain": "HCPIKSRKGDVRHMHYTGKLEDGTEFDSSLPRNQPFVFSLGTGEVIKGWDQGLLGMCEGEKRKLVIPSELGYGERGRPPKIPGGATLVFEVELLKIER", "modifications": "Description of sequence: FKBP13-AcGFP-mCherry Fusion; Construct Name: FKBP-141; FKBP13 DRD in Construct : FKBP13 (mutated to match FKBP12 active site Q72R Q84E A117R (DRD L52R))"}, "B5": {"name": "FKBP-137: FKBP13 DRD Q72R, Q84E, A117W, P75L; SEQ ID NO: 87 (protein)", "chain": "HCPIKSRKGDVLHMHYTGKLEDGTEFDSSLPRNQLFVFSLGTGEVIKGWDQGLLGMCEGEKRKLVIPSELGYGERGWPPKIPGGATLVFEVELLKIER", "modifications": "Description of sequence: FKBP13-AcGFP-mCherry Fusion; Construct Name: FKBP-137; FKBP13 DRD in Construct : FKBP13 (mutated to match FKBP12 active site Q72R Q84E A117W) (DRD P75L)"}, "B6": {"name": "FKBP-134: FKBP13 DRD Q72R, Q84E, A117W, H41R; SEQ ID NO: 84 (protein)", "chain": "RCPIKSRKGDVLHMHYTGKLEDGTEFDSSLPRNQPFVFSLGTGEVIKGWDQGLLGMCEGEKRKLVIPSELGYGERGWPPKIPGGATLVFEVELLKIER", "modifications": "Description of sequence: FKBP13-AcGFP-mCherry Fusion; Construct Name: FKBP-134; FKBP13 DRD in Construct : FKBP13 (mutated to match FKBP12 active site Q72R Q84E A117W) (DRD H41R)"}, "B7": {"name": "FKBP-144: FKBP13 DRD Q72R, Q84E, A117H, D50R, E98M; SEQ ID NO: 94 (protein)", "chain": "HCPIKSRKGRVLHMHYTGKLEDGTEFDSSLPRNQPFVFSLGTGEVIKGWDQGLLGMCMGEKRKLVIPSELGYGERGHPPKIPGGATLVFEVELLKIER", "modifications": "Description of sequence: FKBP13-AcGFP-mCherry Fusion; Construct Name: FKBP-144; FKBP13 DRD in Construct : FKBP13 (mutated to match FKBP12 active site Q72R Q84E A117H) (DRD D50R E98M)"}, "B8": {"name": "FKBP-132: FKBP13 DRD Q72R, Q84E, A117W, G92Y; SEQ ID NO: 82 (protein)", "chain": "HCPIKSRKGDVLHMHYTGKLEDGTEFDSSLPRNQPFVFSLGTGEVIKGWDQYLLGMCEGEKRKLVIPSELGYGERGWPPKIPGGATLVFEVELLKIER", "modifications": "Description of sequence: FKBP13-AcGFP-mCherry Fusion; Construct Name: FKBP-132; FKBP13 DRD in Construct : FKBP13 (mutated to match FKBP12 active site Q72R Q84E A117W) (DRD G92Y)"}, "B9": {"name": "FKBP-133: FKBP13 DRD Q72R, Q84E, A117W, G83T; SEQ ID NO: 83 (protein)", "chain": "HCPIKSRKGDVLHMHYTGKLEDGTEFDSSLPRNQPFVFSLGTTEVIKGWDQGLLGMCEGEKRKLVIPSELGYGERGWPPKIPGGATLVFEVELLKIER", "modifications": "Description of sequence: FKBP13-AcGFP-mCherry Fusion; Construct Name: FKBP-133; FKBP13 DRD in Construct : FKBP13 (mutated to match FKBP12 active site Q72R Q84E A117W) (DRD G83T)"}, "B10": {"name": "FKBP-135: FKBP13 DRD Q72R, Q84E, A117W, E61Y; SEQ ID NO: 85 (protein)", "chain": "HCPIKSRKGDVLHMHYTGKLYDGTEFDSSLPRNQPFVFSLGTGEVIKGWDQGLLGMCEGEKRKLVIPSELGYGERGWPPKIPGGATLVFEVELLKIER", "modifications": "Description of sequence: FKBP13-AcGFP-mCherry Fusion; Construct Name: FKBP-135; FKBP13 DRD in Construct : FKBP13 (mutated to match FKBP12 active site Q72R Q84E A117W) (DRD E61Y)"}, "B11": {"name": "FKBP-143: FKBP13 DRD Q72R, Q84G, A117H, P43R; SEQ ID NO: 93 (protein)", "chain": "HCRIKSRKGDVLHMHYTGKLEDGTEFDSSLPRNQPFVFSLGTGGVIKGWDQGLLGMCEGEKRKLVIPSELGYGERGHPPKIPGGATLVFEVELLKIER", "modifications": "Description of sequence: FKBP13-AcGFP-mCherry Fusion; Construct Name: FKBP-143; FKBP13 DRD in Construct : FKBP13 (mutated to match FKBP12 active site Q72R Q84G A117H) (DRD P43R)"}, "B12": {"name": "FKBP-136: FKBP13 DRD Q72R, Q84E, A117W, S108M; SEQ ID NO: 86 (protein)", "chain": "HCPIKSRKGDVLHMHYTGKLEDGTEFDSSLPRNQPFVFSLGTGEVIKGWDQGLLGMCEGEKRKLVIPMELGYGERGWPPKIPGGATLVFEVELLKIER", "modifications": "Description of sequence: FKBP13-AcGFP-mCherry Fusion; Construct Name: FKBP-136; FKBP13 DRD in Construct : FKBP13 (mutated to match FKBP12 active site Q72R Q84E A117W) (DRD S108M)"}, "B13": {"name": "FKBP-142: FKBP13 DRD Q72R, Q84E, A117W, T64G; SEQ ID NO: 92 (protein)", "chain": "HCPIKSRKGDVLHMHYTGKLEDGGEFDSSLPRNQPFVFSLGTGEVIKGWDQGLLGMCEGEKRKLVIPSELGYGERGWPPKIPGGATLVFEVELLKIER", "modifications": "Description of sequence: FKBP13-AcGFP-mCherry Fusion; Construct Name: FKBP-142; FKBP13 DRD in Construct : FKBP13 (mutated to match FKBP12 active site Q72R Q84E A117W) (DRD T64G)"}, "B14": {"name": "FKBP-138: FKBP13 DRD Q72R, Q84E, A117W, G124R; SEQ ID NO: 88 (protein)", "chain": "HCPIKSRKGDVLHMHYTGKLEDGTEFDSSLPRNQPFVFSLGTGEVIKGWDQGLLGMCEGEKRKLVIPSELGYGERGWPPKIPGRATLVFEVELLKIER", "modifications": "Description of sequence: FKBP13-AcGFP-mCherry Fusion; Construct Name: FKBP-138; FKBP13 DRD in Construct : FKBP13 (mutated to match FKBP12 active site Q72R Q84E A117W) (DRD G124R)"}}}
{"system": "Jurkat cells", "test": "Tacrolimus dose response of FKBP13-AcGFP-mCherry constructs stably transduced into Jurkat cells, GFP MFI by flow cytometry", "assay_type": "cell-based", "settings": "tacrolimus, Jurkat cells stably transduced; Table 6", "description": "The regulation of AcGFP, from FKBP13-AcGFP-mCherry constructs, in Jurkat cells, was also studied. Jurkat Clone E6-1 cells were cultured in standard media (RPMI+GlutaMAX Supplement (Life Technologies, Carlsbad, CA Cat #61870127), Fetal Bovine Serum (FBS) (Life Technologies Cat #10-082-147)). Jurkat cells were transduced with lentivirus produced with each of FKBP-039, FKBP-040, FKBP-041, FKBP-042, FKBP-043, FKBP-044, or FKBP-045 constructs. Jurkat cells were transduced until they were 10-25% positive, as determined on day 5 post-transduction, by using mCherry as a transduction marker. […] The Geometric Mean Fluorescent Intensity (MFI) of GFP expression in mCherry+ cells was plotted and dose response curve fits were performed using Prism Software (San Diego, CA).\nFKBP-091 was used as a comparative construct.\nFIGS. 22-38 show the results of characterization of FKBP-160-292. […] FKBP-091 and FKBP-117 was used as a comparative control for FKBP-160-FKBP-255. FKBP-195 was used as a comparative control for FKBP-256-FKBP-275. FKBP-117, FPBP-195 and FKBP-251 were used as a comparative control for FKBP-276-FKBP-292.\nFKBP mutants were cloned in a manner to make a fusion protein with AcGFP in order to assess FKBP mutant regulation by using AcGFP expression as a readout. […] Further iterative FKBP mutants (FKBP-256-FKBP-292) were constructed from these initial combinatorial mutants to see if we could further improve FKBP DRD properties."}
{"molecule": "B1", "Fold Change": 21.30}
{"molecule": "B2", "Fold Change": 52.24}
{"molecule": "B3", "Fold Change": 28.70}
{"molecule": "B4", "Fold Change": 1.00}
{"molecule": "B5", "Fold Change": 45.79}
{"molecule": "B6", "Fold Change": 15.64}
{"molecule": "B7", "Fold Change": 1.24}
{"molecule": "B8", "Fold Change": 16.27}
{"molecule": "B9", "Fold Change": 19.11}
{"molecule": "B10", "Fold Change": 25.52}
{"molecule": "B11", "Fold Change": 14.97}
{"molecule": "B12", "Fold Change": 22.46}
{"molecule": "B13", "Fold Change": 33.42}
{"molecule": "B14", "Fold Change": 10.43}
